Assay results published in publication PMC7067740, “NDRG2 Protects the Brain from Excitotoxicity by Facilitating Interstitial Glutamate Uptake” (Translational Stroke Research, 2019).

Molecular target: endogenous Na+/K+-ATPase β1 (mouse (endogenous in cultured mouse …, UniProt P14094 1-304))
Test: cell-based or functional assay

B1: endogenous NDRG2 (N-myc downstream regulated gene 2) (natural protein, UniProt Q9QYG0 1-371, looked up)
chain: MAELQEVQITEEKPLLPGQTPETAKEAELAARILLDQGQTHSVETPYGSVTFTVYGTPKPKRPAIFTYHDVGLNYKSCFQPLFRFGDMQEIIQNFVRVHVDAPGMEEGAPVFPLGYQYPSLDQLADMIPCILQYLNFSTIIGVGVGAGAYILSRYALNHPDTVEGLVLINIDPNAKGWMDWAAHKLTGLTSSIPDMILGHLFSQEELSGNSELIQKYRGIIQHAPNLENIELYWNSYNNRRDLNFERGGETTLKCPVMLVVGDQAPHEDAVVECNSKLDPTQTSFLKMADSGGQPQLTQPGKLTEAFKYFLQGMGYMASSCMTRLSRSRTASLTSAASIDGSRSRSRTLSQSSESGTLPSGPPGHTMEVSC
B1 was tested, and the “half-life of endogenous Na+/K+-ATPase β1 in astrocytes after TAT-Ctrl treatment, with 100 μM emetine, immunoblot” value was 1.83 h and the “half-life of endogenous Na+/K+-ATPase β1 in astrocytes after TAT-β1(244–263) treatment, with 100 μM emetine, immunoblot” value was 1.08 h.
